B1: His-tagged HSP20 protein (natural protein, UniProt O14558 1-160, looked up)
chain: MEIPVPVQPSWLRRASAPLPGLSAPGRLFDQRFGEGLLEAELAALCPTTLAPYYLRAPSVALPVAQVPTDPGHFSVLLDVKHFSPEEIAVKVVGEHVEVHARHEERPDEHGFVAREFHRRYRLPPGVDPAAVTSALSPEGVLSIQAAPASAQAPPPAAAK
notes: HSP20 (heat shock protein 20), open reading frame from Ultimate ORF clone IOH57317 in pENTR221, moved into pDEST-17 by Gateway cloning; also called His-HSP20; His-Hsp20; source: E. coli, purified (Ni-NTA Superflow resin); not shown: His, N-terminal, kept
B2: PKD1 25mer peptide spanning residues 606 to 630 (peptide array spot) (peptide)
peptide: GRDVAIKIIDKLRFPTKQESQLRNE
notes: also called G606-E630; source: SPOT-synthesised peptide on array

Assay [1] concerns the target T1, PKD1 on the ProtoArray Human Protein Microarray (human, UniProt Q15139 1-912).
T1 construct: protein kinase D1 (PKD1) as spotted on the human protein microarray; construct not described; Proteins on this commercial array may carry a carrier tag; also called protein kinase D1; source: spotted on ProtoArray Human Protein Microarray (Invitrogen)
T1 sequence (looked up): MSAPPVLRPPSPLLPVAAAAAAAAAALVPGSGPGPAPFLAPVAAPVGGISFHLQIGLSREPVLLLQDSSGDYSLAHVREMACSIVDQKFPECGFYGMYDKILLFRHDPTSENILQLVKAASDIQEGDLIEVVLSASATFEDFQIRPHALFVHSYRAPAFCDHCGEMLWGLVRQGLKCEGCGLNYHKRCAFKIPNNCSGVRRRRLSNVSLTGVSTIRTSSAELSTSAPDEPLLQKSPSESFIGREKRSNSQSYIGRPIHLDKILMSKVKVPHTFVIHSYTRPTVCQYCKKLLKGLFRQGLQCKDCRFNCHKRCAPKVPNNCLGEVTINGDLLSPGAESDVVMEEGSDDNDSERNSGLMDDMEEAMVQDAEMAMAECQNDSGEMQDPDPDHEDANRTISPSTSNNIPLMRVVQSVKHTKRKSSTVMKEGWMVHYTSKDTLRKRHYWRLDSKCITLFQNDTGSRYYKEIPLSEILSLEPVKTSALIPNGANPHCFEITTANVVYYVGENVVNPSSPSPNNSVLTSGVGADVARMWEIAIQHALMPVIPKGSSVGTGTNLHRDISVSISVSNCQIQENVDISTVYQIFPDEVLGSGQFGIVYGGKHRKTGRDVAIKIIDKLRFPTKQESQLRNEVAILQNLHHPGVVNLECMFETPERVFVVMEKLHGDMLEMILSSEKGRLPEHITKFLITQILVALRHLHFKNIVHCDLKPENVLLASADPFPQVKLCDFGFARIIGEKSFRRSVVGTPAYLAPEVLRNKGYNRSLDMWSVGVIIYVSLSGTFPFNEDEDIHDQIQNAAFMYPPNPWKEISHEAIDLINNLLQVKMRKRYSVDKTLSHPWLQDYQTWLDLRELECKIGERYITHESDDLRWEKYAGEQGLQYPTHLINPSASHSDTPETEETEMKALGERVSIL
Put plainly: peptide or protein array; ProtoArray Human Protein Microarray probed with 10 uM (200 ug/ml) His-HSP20 in 1xPBS, 5 mM MgCl2, 0.5 mM DTT, 0.05% Triton X-100, 5% glycerol, 1% BSA for 1.5 h at 4 C; detected with anti-His and Alexa Fluor 647 secondary antibody; control array in parallel. To be noted: both partners purified.

In the assay “His-tagged HSP20 protein” the target is B1. Put plainly: peptide or protein array; sequence of PKD1 spotted as 25mer peptides each shifted by five amino acids, and alanine scanning array of the 606-630 peptide, overlaid with Hsp20; methods in ref. 31. To be noted: both partners purified.

In the case of B1, the binding result in assay [1] is “binds”.

Consider B2, for which the binding result with His-tagged HSP20 protein is listed as “binds”.

For the origin of these results see PMC4356135, “Small heat shock protein 20 (Hsp20) facilitates nuclear import of protein kinase D 1 (PKD1) during cardiac hypertrophy” (Cell Communication and Signaling : CCS, 2015).
